In patent US11648277B2, “Combination therapy with gold controlled transgenes” (Chimera Bioengineering, Inc., priority 2019, dated 2023):

How the values were obtained:
[1] = system: CD4+ T-cells; test: Luciferase-RDE bioluminescence in anti-CD19 CAR T-cells, resting vs Raji co-culture; format: cell-based; conditions: for increase in bioluminescence with CAR stimulation: Raji co-culture 24 h vs resting
Text: Combinations of these inserts/cassettes shown in FIG. 3 were placed in the similar lenti virus constructs. The anti-CD19 CAR cassette and the insert with the luciferase-RDE are transcribed in opposite directions, and the control regions for each are located in between the two insert/cassettes. The control region for the Luciferase-RDE insert and Luciferase-3′-UTR were either a MinP promoter or an NFAT promoter. The control region of the anti-CD19 CAR cassette was the MND promoter, and CD4+ T-cells were transduced with the bicistronic construct.
The transduced T cells were allowed to return to resting state, and then were tested after stimulation as follows. For the ‘no stimulation’ set, transduced T-cells were incubated for 24 h alone in medium. For the ‘Raji co-culture’ set CD19+ Raji B cells were incubated with the transduced T cells for 24 h. At 24 h, the T cells were stained for CD25 and CD69, which are activation markers, and subject to flow cytometry to measure these markers and luciferase expression in the T cells.

[2] = system: T-cells; test: Removal of microRNA binding sites from an RDE, expression from constructs; format: cell-based; conditions: MIR186 micro-RNA sites removed from the 3′-UTR of IL-2
Text: The AU-rich element from the 3′-UTR of IL-2 has mir-181 and mir 186 microRNA binding sites. Different combinations of the microRNA sites were removed from the 3′-UTR of IL-2. When the MIR186 micro-RNA sites were removed from the 3′-UTR of IL-2 the dynamic range of expression from constructs with this UTR increased 50 fold. The modified IL-2, 3′-UTR replaces CTT in the sequence with GAA and is shown below (the new GAA is underlined in the sequence):
Different combinations of the micro-RNA sites were removed from the 3′UTR of IFNg and tested for increased expression. When the mir125 micro-RNA sites were removed from the 3′-UTR of IFN-γ the expression rate from constructs with this UTR is increased.
Expression of GFP in T-cells, transfected with the RDE-GFP plus the microRNA sites, is compared to expression of GFP in T-cells with the RDE-GFP in which the microRNA sites have been removed, following activation with CD3/CD28 beads for 24 hours. The removal of the microRNA sites increased expression of the GFP by a factor of between 2-5 after 24 hours, relative to the cells with microRNA sites.

B1: RDE3: 3′-UTR of IL-2 modified to remove the mir186 sites (SEQ ID NO: 22) (nucleic acid, listed as Homo sapiens)
DNA: TAATTAAGTGCTTCCCACTTAAAACATATCAGGCCTTCTATTTATTTAAATATTTAAATTTTATATTTATTGTTGAATGTATGGTTTGCTACCTATTGTAACTATTATTCTTAATCTTAAAACTATAAATATGGATCTTTTATGATTGAATTTGTAAGCCCTAGGGGCTCTAAAATGGTTTCACTTATTTATCCCAAAATATTTATTATTATGTTGAATGTTAAATATAGTATCTATGTAGATTGGTTAGTAAAACTATTTAATAAATTTGATAAATATAAA
- increase in bioluminescence with CAR stimulation ([1]; MinP promoter): 1.4 fold
- increase in bioluminescence with CAR stimulation ([1]; NFAT promoter): 1.3 fold
- amount of bioluminescence, rank among RDE constructs ([1]; with either promoter): highest amount of bioluminescence
- increase of dynamic range of expression [2]: 50 fold
